Measured values: US20240141071A1 (LAVA THERAPEUTICS N V, published 2024)
Several values for one entry are separate records, joined by “and”; a condition that tells them apart may be missing. Identical values can stand only once.

Tests used:
[1] = biological target: T1, human CD123 expressed on cells (human, UniProt P26951 19-378); assay: cell-based or functional assay
[2] = biological target: T1, human CD123 expressed on cells; assay: flow cytometry titration on 293F cells transiently expressing CD123, anti-VHH detection
Procedure: (§1) FIG. 3: Determination of the apparent affinity of 1D2-5C8var1 for binding to CD123 using flow cytometry. […] The geometric mean of the fluorescence intensity is plotted as a function of the antibody concentration used. The EC50 value was determined by curve fitting.
(§2) Expression constructs for human CD123 and for the common β chain of the receptor (CD131) were purchased from Invivogen. Plasmids were transformed to chemically competent DH5α bacteria and a single colony growing on selective medium was used to inoculate a 50 ml culture to amplify both constructs. […] Either plasmid alone, or a mix of the two plasmids was used for transfection. As negative control, untransfected cells were also used for flow cytometry. A day after transfection, cells were used to test the binding of the bispecific VHH using staining in FACS. Briefly, binding of a saturating concentration of 100 nM bispecific VHH to transfected cells was detected with an AF647-labeled anti-VHH (Genscript) antibody and staining was visualized using a FACS Celesta (Becton and Dickinson).
(§3) The former cells (expressing CD131) were used as negative control.

[3] = biological target: T1, human CD123 expressed on cells; assay: flow cytometry titration on 293F cells transiently expressing CD123; apparent affinity, EC50 by curve fitting
[4] = biological target: T2, recombinant purified CD123-Fc fusion protein (Bio-Techne/R&D Systems) (human, UniProt P26951 19-305); assay: BLI, CD123-Fc on anti-human IgG Fc capture sensors; SD 0.7
T2 construct: Bought; also called Fc-fusion of the CD123 antigen; recombinant CD123
T2 sequence: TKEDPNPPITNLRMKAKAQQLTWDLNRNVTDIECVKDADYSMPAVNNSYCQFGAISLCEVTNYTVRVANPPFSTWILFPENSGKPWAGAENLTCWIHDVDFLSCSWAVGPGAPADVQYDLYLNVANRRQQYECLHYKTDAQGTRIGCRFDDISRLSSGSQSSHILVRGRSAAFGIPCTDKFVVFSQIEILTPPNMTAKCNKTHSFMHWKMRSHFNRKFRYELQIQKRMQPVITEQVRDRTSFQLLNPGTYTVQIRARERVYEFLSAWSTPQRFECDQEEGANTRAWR
Procedure: (§4) To determine the kinetics of binding of humanized 1D2-5C8var1 variants to CD123, recombinant purified CD123-Fc fusion protein (Bio-Techne/R&D Systems) was loaded to a density of 1 nm onto anti-human IgG Fc Capture sensors (using a concentration of 5 μg/ml) for an Octet Red96e (Sartorius) instrument. Different sensors were then dipped in different concentrations of humanized 1D2-5C8var1 variants, starting at 50 nM and two-fold dilutions thereof; dilutions were made in 10× kinetic buffer (10×KB) provided by the supplier. From the obtained sensorgrams, the kinetic association- and dissociation rate constants were determined by curve fitting. The association- and dissociation rate constants, when fitting was possible, were used to calculate the affinity of the humanized 1D2-5C8var1 variants for binding to CD123. […] For reference, the non-humanized (parental) 1D2 was included in these experiments.

[5] = biological target: human CD123 co-expressed with CD131 on 293F cells (human, UniProt P26951 19-378; P32927 17-897); assay: flow cytometry titration on 293F cells transiently expressing CD123 and CD131, anti-VHH detection
Procedure: as §1, §2, §3

[6] = biological target: T2, recombinant purified CD123-Fc fusion …; assay: BLI, CD123-Fc on anti-human IgG Fc capture sensors, Octet Red96e, two measurements
Procedure: To determine the kinetics of binding of 1D2-5C8var1 to CD123, recombinant purified CD123-Fc fusion protein (Bio-Techne/R&D Systems) was loaded to a density of 1nm onto anti-human IgG Fc Capture sensors (using a concentration of 5 μg/ml) for an Octet Red96e (Sartorius) instrument. Different sensors were then dipped in different concentrations of 1D2-5C8var1; dilutions were made in 10× kinetic buffer (10×KB) provided by the supplier. From the obtained sensorgrams, the kinetic association- and dissociation rate constants were determined by curve fitting.
The latter is depicted as straight lines in the figure. This was used to determine the kinetic association- and dissociation rate constants and thereby the affinity of the anti-CD123 VHH 1D2.

BSA = biological target: T3, BSA (bovine, UniProt P02769); assay: ELISA, wells coated with 1% BSA (panel BSA), HRP anti-VHH detection
T3 construct: also called bovine serum albumin, negative control coating
From the text: FIG. 1: ELISA showing binding of all different bispecific VHHs to CD123, the Vγ9Vδ2 (GDT) TCR and BSA (as negative control). OD values are depicted; values are the mean of duplicate measurements; error bars indicate standard errors of the mean. A mono-valent anti-Vδ2 VHH was used as control for the TCR staining (“TCR control”) and a commercially available anti-CD123 antibody (“anti-CD123”) was used as control for the CD123 antigen coatings. “No AB” indicates a negative control without primary antibody.
Recombinant, purified CD123 antigen (extra-cellular domain; Sino Biological), or an Fc-fusion of the CD123 antigen (Bio-Techne/R&D Systems) was coated to the wells of an ELISA plate (Greiner) in PBS at a concentration of 2 μg/ml. As a negative control, wells were coated with 1% (w/v) BSA. An in-house designed, produced and purified recombinant form of the extra-cellular domains of the human Vγ9 and Vδ2 TCR chains fused to a human Fc was also coated as antigen at 2 μg/ml. After coating and blocking of the wells with 2% (w/v) BSA, bispecific VHH proteins were tested for binding at a saturating concentration of 50 nM and bound VHH was detected using an HRP-labeled anti-VHH antibody (Genscript) and staining using 3,3′,5,5′-tetramethylbenzidine (TMB)/H2O2.

[7] = biological target: T4, human CD131 (common β chain of the IL3 receptor) expressed on 293F cells (human, UniProt P32927 17-897); assay: flow cytometry on 293F cells transiently expressing CD131, AF647-labeled anti-VHH detection
T4 sequence: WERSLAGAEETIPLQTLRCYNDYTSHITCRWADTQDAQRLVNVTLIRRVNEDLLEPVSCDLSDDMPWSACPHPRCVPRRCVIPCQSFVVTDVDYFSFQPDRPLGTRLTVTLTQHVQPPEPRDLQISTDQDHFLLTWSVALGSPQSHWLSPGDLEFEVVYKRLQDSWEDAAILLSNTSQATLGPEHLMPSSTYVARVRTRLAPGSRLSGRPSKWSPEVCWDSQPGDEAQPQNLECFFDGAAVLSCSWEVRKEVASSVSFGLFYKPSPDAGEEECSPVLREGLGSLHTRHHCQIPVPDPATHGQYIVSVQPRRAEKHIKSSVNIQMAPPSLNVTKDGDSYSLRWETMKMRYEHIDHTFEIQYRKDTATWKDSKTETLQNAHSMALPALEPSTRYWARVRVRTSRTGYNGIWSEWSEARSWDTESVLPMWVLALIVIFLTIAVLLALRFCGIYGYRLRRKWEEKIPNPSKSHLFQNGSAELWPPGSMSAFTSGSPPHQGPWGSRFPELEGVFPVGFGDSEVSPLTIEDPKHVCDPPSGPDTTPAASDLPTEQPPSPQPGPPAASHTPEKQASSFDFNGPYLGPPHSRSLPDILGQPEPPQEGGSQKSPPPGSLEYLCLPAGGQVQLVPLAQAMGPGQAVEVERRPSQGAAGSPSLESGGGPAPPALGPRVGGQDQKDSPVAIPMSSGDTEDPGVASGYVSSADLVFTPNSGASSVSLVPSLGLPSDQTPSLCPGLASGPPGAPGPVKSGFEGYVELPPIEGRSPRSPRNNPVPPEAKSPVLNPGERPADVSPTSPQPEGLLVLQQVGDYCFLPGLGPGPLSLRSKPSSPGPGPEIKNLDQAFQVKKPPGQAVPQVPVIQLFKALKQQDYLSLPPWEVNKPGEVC
Procedure: as §2

[8] = biological target: T2, recombinant purified CD123-Fc fusion …; assay: BLI, CD123-Fc on anti-human IgG Fc capture sensors; SD 0.4
Procedure: as §4

[9] = biological target: T2, recombinant purified CD123-Fc fusion …; assay: BLI, CD123-Fc on anti-human IgG Fc capture sensors; SD 7.5
Procedure: as §4

[10] = biological target: T1, human CD123 expressed on cells; assay: flow cytometry on CD123 expressing C1R-CD1d cells (cell line used for immunization)
[11] = biological target: T5, Recombinant, purified CD123 antigen (extra-cellular domain; Sino Biological) (human, UniProt P26951 19-305); assay: phage ELISA on recombinant captured CD123 antigen
T5 construct: Bought; also called recombinant human CD123
T5 sequence: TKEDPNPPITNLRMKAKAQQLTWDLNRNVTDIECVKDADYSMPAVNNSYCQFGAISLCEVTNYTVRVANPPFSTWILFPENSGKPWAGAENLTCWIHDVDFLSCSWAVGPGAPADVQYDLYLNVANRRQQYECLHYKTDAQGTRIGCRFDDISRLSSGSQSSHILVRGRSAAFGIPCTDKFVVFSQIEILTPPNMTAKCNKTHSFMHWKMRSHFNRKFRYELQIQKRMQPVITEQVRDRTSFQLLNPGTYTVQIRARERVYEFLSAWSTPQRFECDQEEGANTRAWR

T3 sequence (P02769 25-607 limits assumed): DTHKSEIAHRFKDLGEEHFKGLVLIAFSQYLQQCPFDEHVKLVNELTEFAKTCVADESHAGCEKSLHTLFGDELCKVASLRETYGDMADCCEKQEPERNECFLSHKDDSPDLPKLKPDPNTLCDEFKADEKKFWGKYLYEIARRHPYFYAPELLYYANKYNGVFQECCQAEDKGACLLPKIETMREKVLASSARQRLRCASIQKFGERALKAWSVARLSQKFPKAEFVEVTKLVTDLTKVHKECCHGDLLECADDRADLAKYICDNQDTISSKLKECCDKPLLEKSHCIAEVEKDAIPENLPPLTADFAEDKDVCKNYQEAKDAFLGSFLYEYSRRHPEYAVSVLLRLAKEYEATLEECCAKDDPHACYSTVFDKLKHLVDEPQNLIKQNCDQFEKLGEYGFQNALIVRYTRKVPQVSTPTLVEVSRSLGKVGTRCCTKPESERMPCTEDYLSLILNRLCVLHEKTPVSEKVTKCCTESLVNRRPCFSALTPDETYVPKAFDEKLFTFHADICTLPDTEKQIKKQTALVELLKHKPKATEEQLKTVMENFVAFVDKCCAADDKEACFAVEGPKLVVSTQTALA

B1: 1D2-5C8var1 bispecific VHH (bispecific antibody)
chain: EVQLVESGGGLVQAGGSLRLSCAASGRTASSYVMGWFRQAPGKEREFVAVINWNGDSTYYTDSVKGRFAISRDNAKNTVYLQMNSLKPEDTAVYYCAADTRREWYRDGYWGPPARYEYDYRGQGTQVTVSSGGGGSEVQLLESGGGSVQPGGSLRLSCAASGRPFSNYAMSWFRQAPGKEREFVSAISWSGGSTSYADSVKGRFTISRDNSKNTLYLQMNSLRAEDTAVYYCAAQFSGADYGFGRLGIRGYEYDYWGQGTQVTVSSAAAEPEA
notes: Orientation N-term-anti-CD123 VHH-linker-anti-Vδ2 VHH-C-tag; also called parental 1D2
[1]
  EC50 for cytotoxicity, C1R-neo target cell lysis by Vγ9Vδ2 T cells, 24 h: 0.001 to 0.002 nM
  EC50 of T cell activation and lysis of primary AML blasts: < 0.001 nM
  EC50 of THP-1 target cell lysis by Vγ9Vδ2 T cells: 1000 nM
  EC50 of THP-1 target cell lysis by Vγ9Vδ2 T cells, 24 h: 0.001 to 0.003 nM
[2]
  EC50 (read off the curve): ~3 nM
[3]
  EC50: ~3 nM
[4]
  Kd: 3.1 nM
[5]
  EC50 (read off the curve): ~3 nM
[6]
  Kd: 3 to 5 nM and 5 nM
BSA
  binding result: no binding (tested: 50 nM (single concentration))
[7]
  binding result: no binding (tested: 100 nM (single concentration))

B2: humanized 1D2-5C8var1 variant with 1D2 var1 (SEQ ID NO:25) (bispecific antibody)
chain: EVQLVESGGGLVQPGGSLRLSCAASGRTASSYVMGWFRQAPGKEREFVSVINWNGDSTYYADSVKGRFTISRDNSKNTLYLQMNSLRAEDTAVYYCAADTRREWYRDGYWGPPARYEYDYRGQGTQVTVSSGGGGSEVQLLESGGGSVQPGGSLRLSCAASGRPFSNYAMSWFRQAPGKEREFVSAISWSGGSTSYADSVKGRFTISRDNSKNTLYLQMNSLRAEDTAVYYCAAQFSGADYGFGRLGIRGYEYDYWGQGTQVTVSSAAAEPEA
[8]
  Kd: 7.2 nM

B3: humanized 1D2-5C8var1 variant with 1D2 var4 (SEQ ID NO:28) (bispecific antibody)
chain: EVQLVESGGGVVQPGGSLRLSCAASGRTASSYVMSWFRQAPGKEREWVAVINWNGDSTYYADSVKGRFTISRDNSKNTLYLQMNSLRAEDTAVYYCAADTRREWYRDGYWGPPARYEYDYRGQGTTVTVSSGGGGSEVQLLESGGGSVQPGGSLRLSCAASGRPFSNYAMSWFRQAPGKEREFVSAISWSGGSTSYADSVKGRFTISRDNSKNTLYLQMNSLRAEDTAVYYCAAQFSGADYGFGRLGIRGYEYDYWGQGTQVTVSSAAAEPEA
notes: See note of m19
[9]
  Kd: 20 nM

B4: humanized 1D2-5C8var1 variant with 1D2 var10 (SEQ ID NO:34) (bispecific antibody)
chain: EVQLVESGGGLVQPGGSLRLSCAASGRTASSYVMGWFRQAPGKEREFVSVINWNGDSTYYADSVKGRFTISRDNSKNTLYLQMNSLRAEDTAVYYCAADTRREWYRDGFWGPPARYEYDYRGQGTQVTVSSGGGGSEVQLLESGGGSVQPGGSLRLSCAASGRPFSNYAMSWFRQAPGKEREFVSAISWSGGSTSYADSVKGRFTISRDNSKNTLYLQMNSLRAEDTAVYYCAAQFSGADYGFGRLGIRGYEYDYWGQGTQVTVSSAAAEPEA
notes: See note of m19
[9]
  Kd: 10.4 nM

B5: anti-CD123 VHH 1A3 (VHH)
VHH: EVQLVESGGGLVQAGGSLRLSCAASGRAINTYAMAWFRQAPGKERDFVATISYSGGTTDYAGSVKGRFTISRDNAENTVYLQMNSLKPEDTAVYYCAARDRYNPLARNYNYWGQGTQVTVSS
[10]
  binding result: binds
[11]
  binding result: binds

B6: anti-CD123 VHH 1D2 (VHH)
VHH: EVQLVESGGGLVQAGGSLRLSCAASGRTASSYVMGWFRQAPGKEREFVAVINWNGDSTYYTDSVKGRFAISRDNAKNTVYLQMNSLKPEDTAVYYCAADTRREWYRDGYWGPPARYEYDYRGQGTQVTVSS
notes: also called 1D2 VHH; lead anti-CD123 antibody
[10]
  binding result: binds
[11]
  binding result: binds

B7: 1A3-5C8var1 bispecific VHH (bispecific antibody)
chain: EVQLVESGGGLVQAGGSLRLSCAASGRAINTYAMAWFRQAPGKERDFVATISYSGGTTDYAGSVKGRFTISRDNAENTVYLQMNSLKPEDTAVYYCAARDRYNPLARNYNYWGQGTQVTVSSGGGGSEVQLLESGGGSVQPGGSLRLSCAASGRPFSNYAMSWFRQAPGKEREFVSAISWSGGSTSYADSVKGRFTISRDNSKNTLYLQMNSLRAEDTAVYYCAAQFSGADYGFGRLGIRGYEYDYWGQGTQVTVSSAAAEPEA
notes: Same format as 1D2-5C8var1
[1]
  EC50 of THP-1 target cell lysis by Vγ9Vδ2 T cells: ~0.05 nM
BSA
  binding result: no binding (tested: 50 nM (single concentration))
[7]
  binding result: no binding (tested: 100 nM (single concentration))
